Assay results reported in patent US20150024380A1.

Key:
[1] = target: antibodies of human serum sample 295 (HCV-negative serum with interference) (human); test: Vidas anti-HCV immunoassay: index of the serum on coated HCV Core/NS3/NS4 antigens with 1 ug/ml peptide added (competition)
[2] = target: antibodies of human serum sample F25 (HCV-negative serum with interference) (human); test: as above
[3] = target: anti-HCV antibodies of positive control sample C1 (commercial serum pool, Trina Bioreactives AG); test: Vidas anti-HCV immunoassay: index of the positive control on coated HCV Core/NS3/NS4 antigens with 1 ug/ml peptide added (competition)
[4] = target: antibodies of human serum sample 175 1811 (HCV-negative serum with interference) (human); test: Vidas anti-HCV immunoassay: index of the serum on coated HCV Core/NS3/NS4 antigens with 5 ug/ml peptide added (competition)
[5] = target: antibodies of human serum sample 284 2408 (HCV-negative serum with interference) (human); test: as above
[6] = target: antibodies of human serum sample 498 (HCV-negative serum with interference) (human); test: as above
[7] = target: antibodies of human serum sample 801 1409 (HCV-negative serum with interference) (human); test: as above
[8] = target: antibodies of human serum sample F53 3009 (HCV-negative serum with interference) (human); test: as above
[9] = target: antibodies of human serum sample H48 (HCV-negative serum with interference) (human); test: as above
[10] = target: antibodies of human serum sample M43 (HCV-negative serum with interference) (human); test: as above
[11] = target: anti-HCV antibodies of positive control sample C1 (commercial serum pool, Trina Bioreactives AG); test: Vidas anti-HCV immunoassay: index of the positive control on coated HCV Core/NS3/NS4 antigens with 5 ug/ml peptide added (competition)

Binder | Index [1] | Index [2] | Index [3] | Index [4] | Index [5] | Index [6] | Index [7] | Index [8] | Index [9] | Index [10] | Index [11]
APYIEKGM [peptide A6M (Streptococcus pneumoniae)] | 1.04 index | 2.9 index | 3.05 index | – | – | – | – | – | – | – | –
VSPTHYVPE [peptide V7E (HCV)] | – | – | – | 0.49 index | 1.51 index | 0.35 index | 1.04 index | 0.39 index | 1.17 index | 0.42 index | 3.06 index
YSPTHYVPE [peptide Y7E-1 (Staphylococcus aureus)] | – | – | – | 0.47 index | 0.86 index | 0.14 index | 0.71 index | 0.32 index | 0.88 index | 0.17 index | 3.02 index
AQKRLAPYIE [peptide A8E (Streptococcus pneumoniae)] | 0.95 index | 0.41 index | 3.02 index | – | – | – | – | – | – | – | –
ECSQHLPYIE [peptide E8E (HCV)] | 0.9 index | 0.85 index | 2.92 index | – | – | – | – | – | – | – | –
